Test results taken from the supplement of paper PMC12855868.

B1: library; numbered along this chain (parent)
chain: MAAAGGARLLRAASAVLGGPAGRWLHHAGSRAGSSGLLRNRGPGGSAEASRSLSVSARARSSSEDKITVHFINRDGETLTTKGKVGDSLLDVVVENNLDIDGFGACEGTLACSTCHLIFEDHIYEKLDAITDEENDMLDLAYGLTDRSRLGCQICLTKSMDNMTVRVPETVADARQSIDVGKTS

Variants of: B1
Assay: scaled log2 fold change in cell abundance, elesclomol vs control (0 = silent mean, 1 = nonsense mean) (scaled log2 ratio); higher = higher viability under elesclomol (loss of FDX1 cuproptosis function)
Settings: glucose 10 mM
Method: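 Deep mutational scan of full-length human FDX1: a pooled saturation-mutagenesis ORF library (every residue 2-184 mutated to all 19 amino acids plus stop, and silent codons where available) was expressed by lentivirus in FDX1-knockout ABC1 (14 days) or HEK293T (11 days) cells grown with elesclomol (ES) or DMSO control. Variant abundance came from ORF sequencing. The log2 fold change (ES vs control, mean of duplicates) was centred on the silent-variant mean (0) and scaled to the nonsense-variant mean (1). Higher values mean greater viability under ES, i.e. loss of FDX1 function in cuproptosis.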

[1] = with ABC1 FDX1 KO, elesclomol 5 nM, 14 days
[2] = with HEK293T FDX1 KO, elesclomol 40 nM, 11 days
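Note: variant abundance is its share of total variant reads in each endpoint sample, from next-generation sequencing of the integrated ORF PCR-amplified out of genomic DNA.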

Variant | scaled log2 fold change [1] | scaled log2 fold change [2]
A7C | 0.0253 | 0.515
A7S | 0.0146 | 0.154
A7G | 0.124 | -0.098
A7F | 0.0991 | 0.612
A7H | 0.443 | 0.0712
A7V | -0.5 | 0.903
A7Y | 0.0823 | 0.506
A7D | 0.0271 | 0.843
A7L | 0.0503 | 0.262
A7Q | -0.0571 | –
A7K | 0.136 | -0.253
A7I | 0.0041 | -0.412
A7R | 0.122 | –
A7W | 0.0847 | 0.227
A7T | 0.268 | –
A7N | -0.22 | 0.0857
A7P | 0.316 | –
A7M | -0.526 | 0.892
A7E | 0.407 | –
L9E | 0.282 | -0.224
L9H | -0.458 | 0.226
L9C | 0.282 | -0.0336
L9D | 0.403 | -0.529
L9F | -0.0603 | 0.0924

Variant | scaled log2 fold change [1] | scaled log2 fold change [2]
L9I | -0.993 | -0.482
L9G | 0.0757 | 1.11
G6E | 0.0669 | –
G6V | -0.0163 | 0.974
G6Q | 0.208 | -0.0414
G6P | 0.13 | 0.0736
G6K | 0.0797 | -0.166
G6L | 0.106 | 0.412
G6D | -0.00796 | -0.86
G6C | 0.339 | 0.86
G6S | -0.502 | -0.676
G6W | 0.149 | 0.125
G6H | 0.23 | -1
G6Y | -0.0292 | 0.639
G6N | 0.371 | 0.29
G6I | 0.0452 | -0.31
G6M | -0.159 | -0.651
G6F | 0.153 | -0.294
G6R | 0.173 | 0.123
G6A | 0.239 | -0.652
A4C | 0.0627 | -1.09
A4L | -0.0228 | 0.193
A4G | -0.52 | -0.212
A4F | -0.326 | 0.068

Variant | scaled log2 fold change [1] | scaled log2 fold change [2]
A4D | 0.12 | -0.0733
A4R | -0.535 | -1.29
A4I | 0.158 | 0.102
A4E | -0.03 | -0.0483
A4Y | 0.257 | 0.669
A4K | 0.11 | 0.267
A4T | 0.364 | 0.164
A4N | 0.0756 | -0.335
A4S | 0.221 | 0.988
A4W | 0.154 | -0.542
A4Q | -0.35 | –
A4M | 0.0396 | -0.34
A4V | -0.0619 | -0.566
A3V | 0.0935 | 0.00813
A3I | 0.134 | -0.0748
A3L | -0.261 | 0.507
A3K | 0.135 | 0.17
A3R | 0.464 | -0.63
A3C | 0.227 | 0.756
A3E | 0.299 | 1.21
A3Y | -0.181 | 0.561
A3P | 0.16 | -0.173
A3S | 0.514 | -0.0887
A3G | 0.242 | -0.188

Variant | scaled log2 fold change [1] | scaled log2 fold change [2]
A3H | 0.204 | -0.0465
A3W | 0.38 | 0.562
A3T | 0.122 | -0.0717
A3N | -0.349 | -0.21
A3M | -0.131 | 0.396
A3D | 0.186 | 0.572
A3Q | 0.292 | -0.249
A3F | -0.338 | 0.0034
A2W | -0.098 | -0.566
A2Y | -0.115 | -0.115
G5N | 0.381 | 0.127
G5P | 0.0147 | -0.46
G5H | 0.507 | 1.08
G5K | 0.104 | 0.00379
G5T | -0.0306 | 0.915
G5I | 0.0847 | -0.0288
G5A | -0.65 | 0.164
G5Q | 0.0157 | -0.646
G5F | 0.228 | 0.695
G5Y | -0.325 | 0.00599
G5M | 0.245 | -0.441
G5R | -0.43 | -0.244
G5L | 0.0231 | -0.373
G5D | 0.153 | 0.63

Variant | scaled log2 fold change [1] | scaled log2 fold change [2]
G5W | 0.225 | 0.578
G5V | 0.268 | -0.396
G5E | -0.0118 | 0.75
G5S | 0.203 | -0.121
R8L | -0.0928 | -0.46
R8I | 0.286 | 0.291
R8T | -0.656 | -0.382
R8N | 0.424 | -0.174
R8E | 0.00393 | -0.121
R8S | 0.0501 | -0.479
R8V | 0.395 | 0.881
R8K | 0.28 | -0.152
R8M | -0.909 | -0.722
R8A | 0.393 | 0.0204
R8F | -0.388 | -0.798
R8H | 0.292 | -0.336
R8W | 0.232 | 0.198
R8P | 0.109 | -0.395
R8Y | 0.407 | 0.189
R8D | 0.629 | -0.108
R8Q | 0.308 | -0.248
R8C | 0.116 | 1.05
